According to article PMC6791878, “Evaluation of integrin αvβ6 cystine knot PET tracers to detect cancer and idiopathic pulmonary fibrosis” (Nature Communications, 2019):

Tests used:
Experiment in all cases: flow cytometry on cells; equilibrium titration: 100 nM to 300 pM recombinant integrin αvβ6 incubated with 10^5 yeast cells displaying the knottin plus 10^6 un-induced yeast cells; integrin binding buffer (25 mM Tris pH 7.4, 150 mM NaCl, 2 mM CaCl2, 1 mM MgCl2, 1 mM MnCl2, 0.1% BSA); fluorescein anti-αv antibody, binding normalised to cMyc expression
[1] = biological target: R01-MR cystine knot peptide displayed on the yeast surface
[2] = biological target: R01 cystine knot peptide displayed on the yeast surface
[3] = biological target: R01-MG cystine knot peptide displayed on the yeast surface

## Recombinant human integrin αvβ6 (from UniProt P06756 31-1048; P18564 22-709) (complex)
[1]
  Kd: 1 nM
[2]
  Kd: 1 nM
[3]
  Kd: 1.24 nM
